# Data from paper PMC12343972 (Nature Communications, 2025).
# T1: Rad50-K60A (Saccharomyces cerevisiae, UniProt P12753 1-1312, K60A)
# T1 sequence: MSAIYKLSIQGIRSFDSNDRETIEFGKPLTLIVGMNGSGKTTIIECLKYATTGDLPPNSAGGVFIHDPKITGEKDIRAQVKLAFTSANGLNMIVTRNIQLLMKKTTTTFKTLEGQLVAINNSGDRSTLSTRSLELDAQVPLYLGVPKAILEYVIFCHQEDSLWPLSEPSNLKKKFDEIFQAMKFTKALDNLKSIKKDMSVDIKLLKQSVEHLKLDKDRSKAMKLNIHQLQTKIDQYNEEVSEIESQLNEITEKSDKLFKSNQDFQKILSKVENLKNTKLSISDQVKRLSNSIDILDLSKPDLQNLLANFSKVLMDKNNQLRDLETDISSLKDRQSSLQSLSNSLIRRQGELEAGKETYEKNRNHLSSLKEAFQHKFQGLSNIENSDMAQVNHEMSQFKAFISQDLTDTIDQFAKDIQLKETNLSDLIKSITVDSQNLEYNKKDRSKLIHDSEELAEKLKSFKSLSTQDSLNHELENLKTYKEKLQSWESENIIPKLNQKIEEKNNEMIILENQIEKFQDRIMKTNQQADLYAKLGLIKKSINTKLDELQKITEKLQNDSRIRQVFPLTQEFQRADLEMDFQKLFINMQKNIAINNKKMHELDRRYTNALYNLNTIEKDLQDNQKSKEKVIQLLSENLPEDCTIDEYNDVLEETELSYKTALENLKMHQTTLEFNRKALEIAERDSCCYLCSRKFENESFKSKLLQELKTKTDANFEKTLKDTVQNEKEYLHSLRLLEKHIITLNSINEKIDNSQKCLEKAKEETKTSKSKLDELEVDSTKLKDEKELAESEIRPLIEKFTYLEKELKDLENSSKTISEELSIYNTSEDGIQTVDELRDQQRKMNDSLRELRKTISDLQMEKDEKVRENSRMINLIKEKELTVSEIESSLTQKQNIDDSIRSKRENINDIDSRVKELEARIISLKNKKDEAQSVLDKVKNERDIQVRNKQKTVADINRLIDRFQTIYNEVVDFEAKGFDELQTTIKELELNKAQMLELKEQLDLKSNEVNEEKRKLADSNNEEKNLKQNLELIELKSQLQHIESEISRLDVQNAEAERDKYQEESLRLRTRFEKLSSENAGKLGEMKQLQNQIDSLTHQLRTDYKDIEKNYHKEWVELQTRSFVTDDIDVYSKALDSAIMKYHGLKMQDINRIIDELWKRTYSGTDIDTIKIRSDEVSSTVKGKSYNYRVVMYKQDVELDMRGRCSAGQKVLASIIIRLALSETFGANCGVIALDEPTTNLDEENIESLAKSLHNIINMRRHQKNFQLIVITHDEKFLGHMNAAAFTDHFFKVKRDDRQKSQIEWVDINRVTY
# B1: 83-mer dsDNA (EMSA) (dsDNA)
# DNA 1: TTGATAAGAGGTCATTTTTGCGGATGGCTTAGAGCTTAATTGCTGAATCTGGTGCTGTAGCTCAACATGTTTTAAATATGCAA
# DNA 2: TTGCATATTTAAAACATGTTGAGCTACAGCACCAGATTCAGCAATTAAGCTCTAAGCCATCCGCAAAAATGACCTCTTATCAA
# Biological target: T1, Rad50-K60A
# Test: EMSA
binder,measurement,value
B1,binding result,binds
